Measured values taken from patent publication US20210087239A1 (ACADEMIA SINICA, published 2021).
Blank lines part the entries; values can stand above or below the binder they belong to.

B1: Paraspeckle component 1 (PSPC1), human (other)
chain: MMLRGNLKQVRIEKNPARLRALESAVGESEPAAAAAMALALAGEPAPPAPAPPEDHPDEEMGFTIDIKSFLKPGEKTYTQRCRLFVGNLPTDITEEDFKRLFERYGEPSEVFINRDRGFGFIRLESRTLAEIAKAELDGTILKSRPLRIRFATHGAALTVKNLSPVVSNELLEQAFSQFGPVEKAVVVVDDRGRATGKGFVEFAAKPPARKALERCGDGAFLLTTTPRPVIVEPMEQFDDEDGLPEKLMQKTQQYHKEREQPPRFAQPGTFEFEYASRWKALDEMEKQQREQVDRNIREAKEKLEAEMEAARHEHQLMLMRQDLMRRQEELRRLEELRNQELQKRKQIQLRHEEEHRRREEEMIRHREQEELRRQQEGFKPNYMENREQEMRMGDMGPRGAINMGDAFSPAPAGNQGPPPMMGMNMNNRATIPGPPMGPGPAMGPEGAANMGTPMMPDNGAVHNDRFPQGPPSQMGSPMGSRTGSETPQAPMSGVGPVSGGPGGFGRGSQGGNFEGPNKRRRY
notes: Endogenous PSPC1 of human HCC cell lines (Huh-7, Mahlavu); also called endogenous PSPC1; nuclear PSPC1

Columns and labels:
β-catenin [1] = target: T1, β-catenin (human, UniProt P35222 2-781); assay: IP/western blotting, Huh-7 cells with HGF stimulation (FIG. 3b)
T1 construct: Endogenous protein co-immunoprecipitated from cell lysates or nuclear fractions; also called nuclear β-catenin
T1 sequence (looked up): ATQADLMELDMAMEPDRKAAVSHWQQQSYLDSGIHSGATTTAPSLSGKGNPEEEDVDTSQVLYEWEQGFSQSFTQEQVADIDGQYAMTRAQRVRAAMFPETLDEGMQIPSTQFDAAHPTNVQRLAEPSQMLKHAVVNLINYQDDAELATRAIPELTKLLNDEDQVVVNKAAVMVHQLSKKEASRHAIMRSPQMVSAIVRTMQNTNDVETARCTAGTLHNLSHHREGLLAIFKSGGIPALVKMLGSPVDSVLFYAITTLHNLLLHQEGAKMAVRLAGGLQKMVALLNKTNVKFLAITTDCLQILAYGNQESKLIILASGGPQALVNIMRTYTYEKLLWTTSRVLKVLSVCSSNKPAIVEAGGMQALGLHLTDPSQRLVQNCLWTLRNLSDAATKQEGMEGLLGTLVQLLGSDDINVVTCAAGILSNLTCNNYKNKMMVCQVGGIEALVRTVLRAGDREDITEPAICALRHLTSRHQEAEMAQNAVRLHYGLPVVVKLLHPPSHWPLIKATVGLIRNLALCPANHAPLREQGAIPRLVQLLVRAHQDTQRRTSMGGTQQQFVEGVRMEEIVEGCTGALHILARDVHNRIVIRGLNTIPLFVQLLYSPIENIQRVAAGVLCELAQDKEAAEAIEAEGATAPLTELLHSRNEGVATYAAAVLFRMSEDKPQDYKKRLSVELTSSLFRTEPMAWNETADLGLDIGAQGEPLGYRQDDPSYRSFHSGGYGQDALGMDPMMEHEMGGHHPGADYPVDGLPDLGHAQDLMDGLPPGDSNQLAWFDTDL
Procedure: (§1) (a-b) Huh-7 treated with or without HGF (10 ng/ml) for EMT induction. Under HGF stimulation, nuclear PSPC1 interacted with β-catenin and loss of PTK6 interaction owing to an increase of cytosolic PTK6 accumulation in HGF-induced EMT model in IP/westem blotting analysis. Arrowhead is the IgG heavy chain. Arrows are indicated proteins after IB. (c) Nuclear (SP1 as marker) and cytosolic (α-tubulin as marker) localization of PSPC1/PTK6 interaction and β-catenin analyzed by western blotting analysis in SK-hep1 cells. PSPC1-Y523F mutant further enhanced nuclear localization of β-catenin. (d) Nuclear (SP1 as marker) localization of PSPC1/PTK6 interaction and βcatenin analyzed by IP/western blotting analysis in SK-hep1 cells. Y523F PSPC1 mutant further enhanced nuclear interaction with β-catenin but not PTK6. […] Promoter activation (fold) was calculated relative to vector alone (Mock) in cells. […] (h) Secreted cytokines Wnt1 and Wnt3a protein expression measured by ELISA assays of conditional medium after transfection of divergent PSPC1/PTK6 expression constructs in SK-hep1 cells.

β-catenin [2] = target: T1, β-catenin; assay: IP/western blotting of nuclear fraction, SK-hep1 cells (FIG. 3d)
Procedure: as §1

[3] = target: B1; assay: conclusion drawn from expression and fractionation experiments in Mahlavu cells; no direct binding assay described
[4] = target: T2, HA-tagged PSPC1 (wild type) (human, UniProt Q8WXF1 1-523); assay: subcellular fractionation and western blotting, SK-hep1 cells (FIG. 1e)
T2 construct: Full-length PSPC1 cDNA cloned into pcDNA3.0-HA and expressed in 293T or SK-hep1 cells; also called HA-PSPC1; wild-type PSPC1; not shown: HA tag from the pcDNA3.0-HA plasmid
T2 sequence: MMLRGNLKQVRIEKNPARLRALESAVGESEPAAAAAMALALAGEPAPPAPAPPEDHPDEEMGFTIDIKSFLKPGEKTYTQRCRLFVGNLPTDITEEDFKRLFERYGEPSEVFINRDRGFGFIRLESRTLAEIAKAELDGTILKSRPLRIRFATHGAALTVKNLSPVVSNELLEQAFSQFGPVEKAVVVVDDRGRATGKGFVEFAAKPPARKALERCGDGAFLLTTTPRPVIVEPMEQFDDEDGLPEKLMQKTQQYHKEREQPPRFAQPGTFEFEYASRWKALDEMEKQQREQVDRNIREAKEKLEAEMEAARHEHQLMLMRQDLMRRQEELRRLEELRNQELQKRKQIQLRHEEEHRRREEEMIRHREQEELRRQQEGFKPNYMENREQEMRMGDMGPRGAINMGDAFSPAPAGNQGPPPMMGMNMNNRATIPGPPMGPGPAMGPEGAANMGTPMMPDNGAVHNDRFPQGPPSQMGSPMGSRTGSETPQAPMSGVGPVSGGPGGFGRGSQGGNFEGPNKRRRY

Binder: B1
binding result (β-catenin [1]): binds

binding result (β-catenin [2]): binds
B2: PSPC1-Y523F mutant (HA-tagged) (other)
chain: MMLRGNLKQVRIEKNPARLRALESAVGESEPAAAAAMALALAGEPAPPAPAPPEDHPDEEMGFTIDIKSFLKPGEKTYTQRCRLFVGNLPTDITEEDFKRLFERYGEPSEVFINRDRGFGFIRLESRTLAEIAKAELDGTILKSRPLRIRFATHGAALTVKNLSPVVSNELLEQAFSQFGPVEKAVVVVDDRGRATGKGFVEFAAKPPARKALERCGDGAFLLTTTPRPVIVEPMEQFDDEDGLPEKLMQKTQQYHKEREQPPRFAQPGTFEFEYASRWKALDEMEKQQREQVDRNIREAKEKLEAEMEAARHEHQLMLMRQDLMRRQEELRRLEELRNQELQKRKQIQLRHEEEHRRREEEMIRHREQEELRRQQEGFKPNYMENREQEMRMGDMGPRGAINMGDAFSPAPAGNQGPPPMMGMNMNNRATIPGPPMGPGPAMGPEGAANMGTPMMPDNGAVHNDRFPQGPPSQMGSPMGSRTGSETPQAPMSGVGPVSGGPGGFGRGSQGGNFEGPNKRRRF
notes: All PSPC1 mutants were generated in a pCDNA3.0-HA plasmid; also called Y523F PSPC1 mutant; HA-tagged Y523F mutant; not shown: HA tag from the pCDNA3.0-HA plasmid

binding result [3]: binds
B3: EGFP-conjugated PSPC1-CT131 (PSPC1 C-terminal 131 fragment) (other)
chain: MGDMGPRGAINMGDAFSPAPAGNQGPPPMMGMNMNNRATIPGPPMGPGPAMGPEGAANMGTPMMPDNGAVHNDRFPQGPPSQMGSPMGSRTGSETPQAPMSGVGPVSGGPGGFGRGSQGGNFEGPNKRRRY
notes: PSPC1-CT131 cloned into pEGFP-C2 and expressed in Mahlavu cells; also called PSPC1-CT131-EGFP; EGFP-PSPC1-CT; not shown: EGFP from the pEGFP-C2 plasmid

binding result [4]: no binding
B4: Flag-tagged PTK6 kinase-dead mutant (PTK6-K219M) (enzyme)
chain: not shown
notes: also called PTK6-KM; KM mutant; not shown: Flag tag
